The source of these data is patent US11236367B2, “Fatty acid decarboxylase and its uses” (COMMISSARIAT A L'ENERGIE ATOMIQUE ET AUX ENERGIES …, priority 2016, dated 2022).

The test system of series [1] is E. coli cells. The experiment in a line: Hydrocarbon content of E. coli cells expressing algal GMC oxidoreductase. In kind it is cell-based, Escherichia coli. Particulars: no fatty acid substrate added; absent with empty vector. The source says:
Chlamydomonas reinhardtii and Phaeodactylum tricornutum Alkane synthase was amplified from a synthetic gene codon-optimized for E. coli using for Chlamydomonas reinhardtii a primer forward 5′-[…]-3′ (SEQ ID No 29) and a primer reverse, 5′-[…]-3′ (SEQ ID No 30). For Phaeodactylum tricornutum, forward primer 5′-[…]-3′ (SEQ ID No 31), reverse primer 5′-[…]-3′ (SEQ ID No 32). Genes were cloned into pLIC07 vector, which introduced downstream of the ATG start codon a cassette coding for a 6 His-tagged thioredoxin and a tobacco etch virus (TEV) protease-cleavage site. E. coli strain expressing the GMC oxidase from Chlorella variabilis NC64A, Chlamydomonas reinhardtii or Phaeodactylum triconutum were grown at 37° C. with agitation at 180 rpm and light at 100 μmole.photon.m^−2·s^−1. When OD reached 0.6, 500 μM of isopropyl β-D-1-thiogalactopyranoside was added. Cells were then grown for 24 hours at 37° C., harvested, transmethylated using methanol added with 5% sulfuric acid and hydrocarbons were extracted with hexane and analyzed by GC-MS as previously described.

For series [2], the system named is E. coli cells. Put plainly: Co-expression in E. coli of a GMC oxidoreductase and a lipase. Format: cell-based, Escherichia coli. Particulars: compared to E. coli strains expressing the GMC oxidoreductases alone. The method, then:
E. coli strain transformed with a vector expressing the GMC oxidase from Chlorella variabilis NC64A (or Chlamydomonas reinhardtii) and/or a vector expressing the lipase from the bacterium Staphylococcus hyicus, were grown in TB medium at 37° C. Expression was induced with 1 mM of isopropyl β-D-1-thiogalactopyranoside (added with 0.2% arabinose for co-expression). Cells were then grown overnight at 25° C. at 100 μmole.photon.m^−2·s^−1 and 6 h at 2000 μmole.photon.m^−2·s^−1. Cells were harvested (4 ml at OD=5), transmethylated using methanol added with 5% sulfuric acid and hydrocarbons were analyzed by SPME and GC-MS as previously described.

Series [3] deals with T1, Chlorella GMC oxidoreductase (Chlorella variabilis, UniProt A0A248QE08).
T1 construct: 6 His-tagged thioredoxin (N, cleaved yes); TEV protease-cleavage site (N, cleaved yes); made in house; host or cells: E. coli BL21-CodonPlus (DE3)-RIL
Put plainly: Enzymatic assay with purified recombinant enzyme (GC-MS of products). Particulars: for fatty acid substrate range of the enzyme: purified recombinant enzyme, white light. In kind it is biochemical, Chlorella variabilis NC64A. The method, then:
(§1) All assays were performed in transparent glass vials sealed using caps with septum. Optimum pH was determined using a Teorell Stenhagen universal buffer (33 mM citric acid monohydrate, 33 mM phosphoric acid, 100 mM NaOH, 16.7 mM of boric acid, pH 8.5 adjusted with 1N HCl). Other assays were performed in 100 mM Tris HCl pH 8.5, 100 mM NaCl. Reaction mixtures (500 μL) typically contained 160 nM purified enzyme (stock ? solution 2.5 mg ml^−1) and 400 μM substrate (stock solution 10 mM in ethanol). In some assays, a lipase was used with the alkane synthase. In this case, substrate was a triacylglycerol. Generally, samples were shaken at 200 rpm during 15 min under LED-made white light at 2000 μmol ? photons m^−2s^−1. After the incubations, samples were heated at 95° C. during 15 min to stop the enzymatic reaction. Samples were cooled down and internal standard (hexadecane) was added (45 nmol from a 4.5 mM stock solution in chloroform). NaOH was then added to the reaction mixture (10 μL from a stock solution of 10 M) and samples were vortexed for 5 min. Then 250 μL of hexane was added and samples were vortexed for 5 min to extract alkanes and alkenes. The hexane phase was collected by centrifugation and analyzed by GC-MS-FID. The analysis was done by direct injection of 100 μl of the headspace into a GC-MS. In FIG. 11 activity on 1-^13C-palmitate was monitored by release of ^13CO2 using membrane inlet mass spectrometry. Illuminations were provided by CBT-120 LEDs (Luminous, Billerica) either blue (peak at 460 nm, 25 nm FWHM), or red (peak at 635 nm, 15 nm FWHM) at an intensity of 850 μmol photons m^−2 s^−1.

For series [4], the target named is T1, Chlorella GMC oxidoreductase. Put plainly: 13CO2 release from 1-13C-palmitate with the purified enzyme (membrane inlet mass spectrometry). Format: biochemical, Chlorella variabilis NC64A. Particulars: CO2 production monitored, light on/off. The method, then:
as §1, with “Then 250 μL of hexane was added and samples were vortexed for 5 min to extract alkanes and alkenes.” left out, “The analysis was done by direct injection of 100 μl of the headspace into a GC-MS.” left out, “Illuminations were provided by CBT-120 LEDs (Luminous, Billerica) either blue (peak at 460 nm, 25 nm FWHM), or red (peak at 635 nm, 15 nm FWHM) at an intensity of 850 μmol photons m^−2 s^−1.” left out
Online measurements of ^12CO2 (m/z=44) and ^13CO2 (m/z=45) were monitored using mass spectrometry (model Prima B, Thermo Scientific). […]

Series [5] relates to Chlamydomonas strain. Put plainly: Hydrocarbons in Chlamydomonas strain with chloroplast genome transformed with the Chlorella enzyme cDNA. To be noted: chloroplastic genome transformed with cDNA of the enzyme. Format: cell-based, Chlamydomonas reinhardtii. The method, then:
Chlamydomonas reinhardtii CC124 (nit1 nit2; mt−) and Chlamydomonas reinhardtii overexpressing the alkane synthase gene were cultured in minimal medium (Harris, 1989) in one liter photobioreactors (BIOSTAT Aplus, Sartorius Stedim Biotech) operated as turbidostats. A880 was measured continuously using a biomass probe (Excellprobe, Exner) and cultures were maintained at constant A880 by injection of fresh medium. The pH was maintained at a constant value of 7 by injection of KOH (0.2 N) or HCl (0.2 N). The cultures were stirred using a metal propeller (250 rpm). The gas flow rate was adjusted to 0.5 L min^−1. Air enriched with 2% (v/v) CO2 was generated using mass flow meters (EL flow, Bronkhorst). White light was supplied by eight fluorescent tubes (Osram Dulux L 18 W) placed radially around the photobioreactor. We used a blue filter (363 special medium blue, Lee filters, USA) and a red filter (113 magenta, Lee filters, USA) to provide respectively blue and red light. Both lights were at same intensity (35 μmol photons m^−2s^−1).
To quantify hydrocarbons together with fatty acids, transmethylation of whole cells was used. […]

B1: Chlamydomonas enzyme: GMC oxidoreductase of Chlamydomonas reinhardtii expressed in Escherichia coli (protein, listed as Chlamydomonas reinhardtii)
chain: LSVRAAAGPAGSEKFDYVLVGGGTASCVLANKLSADGNKKVLVLEAGPTGDAMEVAVPAGITRLFAHPVMDWGMSSLTQKQLVAREIYLARGRMLGGSSGSNATLYHRGSAADYDAWGLEGWSSKDVLDWFVKAECYADGPKPYHGTGGSMNTEQPRYENVLHDEFFKAAAATGLPANPDFNDWSHPQDGFGEFQVSQKKGQRADTYRTYLKPAMARGNLKVVIGARATKVNIEKGSSGARTTGVEYAMQQFGDRFTAELAPGGEVLMCSGAVHTPHLLMLSGVGPAATLKEHGIDVVSDLSGVGQNLQDHPAAVLAARAKPEFEKLSVTSEVYDDKCNIKLGAVAQYLFQRRGPLATTGCDHGAFVRTSSSLSQPDLQMRFVPGCALDPDGVKSYIVFGELKKQGRAWPGGITLQLLAIRAKSKGSIGLKAADPFINPAININYFSDPADLATLVNAVKMARKIAAQEPLKKYLQEETFPGERASSDKDLEEYIRRTVHSGNALVGTAAMGASPAAGAVVSSADLKVFGVEGLRVVDASVLPRIPGGQTGAATVMVAERAAALLRGQATIAPSRQPVAV
Consider B1, for which, in series [1], the “hydrocarbons formed in E. coli cells expressing the enzyme” value (“hydrocarbons formed” for short) is “formation in E. coli cells of pentadecane and heptadecane as well as their monounsaturated analogs”. Further, the “increase in most hydrocarbons on co-expression with bacterial lipase (Uniprot P04635)” value in series [2] is reported as “two to three-fold increase”.

B2: Phaeodactylum enzyme: GMC oxidoreductase of the diatom Phaeodactylum tricornutum expressed in Escherichia coli (protein, listed as Phaeodactylum tricornutum)
chain: YDYIICGGGLAGCVLAERLSQDESKRVLVLEAGGSDYKSLFIRIPAGVLRLFRSKYDWQHETGGEKGCNGRNVFLQRGKILGGSSCTNVCLHHRGSAEDYNSWNIPGWTATDVLPFFKQSQKDETGRDATFHGADGEWVMDEVRYQNPLSKLFLEVGEAAGLGTNDDFNNWSHPQDGVGRFQVSEVNGERCSGATAFLSKAAKRSNVIVRTGTMVRRIDFDETKTAKGITYDLMGDDTCTTFQACLKEGGEVLVTGGAIASPQLLMCSGIGPGKHLRSLGIPVVHDNSAVGENLQDHPAAVVSFKTPQKGVSVTSKLRLFGKTNPIPVFQWLFFKSGLLTSTGCDHGAFVRTSDSLEQPDLQIRFLAARALGPDGMTTYTKFRTMKTVEDGYSFQSVACRAKSKGRIRLSSSNSHVKPMIDGGYLSNQDDLATLRAGIKLGRMLGNRPEWGEYLGQEVYPGPDVQTDEEIDEYIRNSLHTANALTGTCKMGTGRGAVVGPDLRVIGVNGVRVGDSSVFPCIPGGQTATPTVMIGDRAAVFVRQPVSQLNIEIFREKGGTHPGATTASA
Regarding B2, the “hydrocarbons formed” value in series [1] is recorded as “albeit in lower amounts”.

B3: Chlorella GMC oxidoreductase: GMC protein from Chlorella variabilis NC64A; 69 kDa FAD-dependent fatty acid decarboxylase (alkane synthase) (protein, listed as Chlorella variabilis)
chain: RASAVEDIRKVLSDSSSPVAGQKYDYILVGGGTAACVLANRLSADGSKRVLVLEAGPDNTSRDVKIPAAITRLFRSPLDWNLFSELQEQLAERQIYMARGRLLGGSSATNATLYHRGAAGDYDAWGVEGWSSEDVLSWFVQAETNADFGPGAYHGSGGPMRVENPRYTNKQLHTAFFKAAEEVGLTPNSDFNDWSHDHAGYGTFQVMQDKGTRADMYRQYLKPVLGRRNLQVLTGAAVTKVNIDQAAGKAQALGVEFSTDGPTGERLSAELAPGGEVIMCAGAVHTPFLLKHSGVGPSAELKEFGIPVVSNLAGVGQNLQDQPACLTAAPVKEKYDGIAISDHIYNEKGQIRKRAIASYLLGGRGGLTSTGCDRGAFVRTAGQALPDLQVRFVPGMALDPDGVSTYVRFAKFQSQGLKWPSGITMQLIACRPQSTGSVGLKSADPFAPPKLSPGYLTDKDGADLATLRKGIHWARDVARSSALSEYLDGELFPGSGVVSDDQIDEYIRRSIHSSNAITGTCKMGNAGDSSSVVDNQLRVHGVEGLRVVDASVVPKIPGGQTGAPVVMIAERAAALLTGKATIGASAAAPATVAA
As to B3, the “hydrocarbons formed” value in series [1] was “presence of long chain alkanes from 13 to 17 carbons”. In addition, in series [3], the “dependence of pentadecane production on light intensity” value is “increases linearly with light intensity”. In addition, the results for the “fatty acid substrate range of the enzyme” value in series [3] and in series [3] (listed as Chlorella alkane synthase) were “active on a variety of saturated free fatty acids ranging from C12 to C22 carbons” and “can use C12 to C22 fatty acids”, respectively. The “increase in most hydrocarbons on co-expression with bacterial lipase (Uniprot P04635)” value in series [2] is “two to three-fold increase”. Further, the “dependence of enzyme activity on light” value in series [4] is “stops immediately when light is turned off”. The “change of hydrocarbon content in transformed Chlamydomonas strain” value in series [5] is “an increase was noted in the heptadecene content, and heptadecane also appeared”.
